Measurements taken from US20230374148A1, “BINDING MOLECULES THAT MULTIMERISE CD45” (UCB BIOPHARMA SRL, priority 2020, published 2023).

System: Human whole blood
Assay: Cytokine release in whole blood at 24 hrs, MSD assay
Type: cell-based
Experimental: Human whole blood (Lithium heparin tubes) was taken from one donor (HTA #031219-06) at UCB Pharma Slough, UK according to approved ethical sample collection protocol.
In a Greiner 96-well non-binding microplate, Fab-X and Fab-Y combination 6294-X/4133-Y was added to PBS to give a Fab-KD-Fab concentration of 2000 nM. Similarly, stocks of 4133-6294 BYbe and NegCtrl BYbe were prepared in PBS at 2000 nM. The microplate was incubated for 1 hr at 37° C., 5% CO2. Following the incubation, Fab-KD-Fab and BYbe reagents were then serially diluted in PBS 1 in 5, seven times to produce to form an 8-point dose curve.
12.5 μl of Fab-KD-Fab or BYbe dilution was transferred into Corning Costar 96-well, cell culture treated, U-shaped-bottom microplate (cat no. 07-200-95) and 237.5 μl of whole blood added to each well. Final well concentrations of Fab-KD-Fab or BYbes were 100-0.00128 nM. […]
Measurement of cytokines was carried out using the V-PLEX Human Proinflammatory Panel I (4-Plex) (IFN-γ, IL-1β, IL-6, TNF-α, cat no. K15052D, Meso Scale Discovery) according to manufacturer's instructions. […] The plates were washed as before, and 150 μl of read buffer (diluted 1 in 2 in dH2O) was added to each well. The plates were then analysed on a SECTOR Imager 6000 (Meso Scale Discovery).

“Campath: anti-CD52, clinical grade, indicated by FDA for B-cell Chronic Lymphocytic Leukaemia; positive control [reference compound]” was tested, and the “levels of IL-1β” value (Campath 10 μg/ml, other reagents 100-0.00128 nM) was “marked level”.

B1: 4133-6294 BYbe: anti-CD45 BYbe (Fab-scFv): 4133 Fab HC-G4S linker-6294 scFv heavy chain paired with 4133 light chain (antibody)
heavy: QEQLVESGGGLVQPEGSLTLTCTASGFSFSGNYYMCWVRQAPGKGLEWIGCLYTGSSGSTYYASWAKGRFTISKTSSTTVTLQMTSLTAADTATYFCARDLGYEIDGYGGLWGQGTLVTVSSGQPKAPSVFPLAPCCGDTPSSTVTLGCLVKGYLPEPVTVTWNSGTLTNGVRTFPSVRQSSGLYSLSSVVSVTSSSQPVTCNVAHPATNTKVDKTVAPSTCSKPGGGGSGGGGSEVQLVESGAELARPGASVKMSCKASGYTFTSYTMHWVKQRPGQCLEWIGYINPSSGYTEYNQKFKDKTTLTADKSSSTAYLQLSSLTSEDSAVYYCARVGDGFYPSWLAYWGQGTLVTVSSGGGGSGGGGSGGGGSGGGGSDIQMTQSPKFLLVSAGDRVTITCKASQSVRNDVAWYQQKPGQSPKLLIFYASKRYTGVPDRFTGSGYGTDFTFTISTVQAEDLAVYFCQQDYSSPTTFGCGTKLEIK
light: AQVLTQTPSPVSAVVGGTVSISCQASQSVYNNNNLSWYQQKPGQPPKLLIYDASKLASGVPSRFKGSGSGTQFTLTISGVQCDDAATYYCLGGYYSSGWYFAFGGGTKVVVKRTPVAPTVLIFPPAADQVATGTVTIVCVANKYFPDVTVTWEVDGTTQTTGIENSKTPQNSADCTYNLSSTLTLTSTQYNSHKEYTCKVTQGTTSVVQSFNRGDC
In the case of B1, the “induction of inflammatory cytokines (IFN-γ, IL-6, TNF-α)” value (100-0.00128 nM, compared with PBS- and NegCtrl BYbe-treated wells) is reported as “little or no induction”.
